According to US11110182B2, “Multifunctional RNA nanoparticles and methods for treating cancer and therapeutic resistant cancer” (University of Cincinnati, priority 2016, dated 2021):

Test: Biosafety during therapeutic treatment (body weight, organ H&E histopathology)
Type: in vivo, athymic nude mice
Protocol: FIG. 12A) During therapeutic treatment to orthotopic xenograft mouse models, the body weights of mice were recorded every three days. FIG. 12B) After therapeutic treatment, major organs were excised, fixed in 10% neutral formalin buffer, embedded in paraffin, sectioned and examined for histopathology by H&E staining. Scale bar: 100 μm.
Migration and metastasis assay. The 8-μm-pore-size polycarbonate membrane, which separates the two chambers of a 6.5-mm Transwell (Costar), was coated with or without 1:8 DMEM-diluted Matrigel (Corning). […] Cells at top side of membranes were removed completely, and cells at the bottom side were examined with an Olympus SZX12 microscope and counted. • Mammosphere culture and breast cancer stem cell analyses. […] After treatment with or without 1 μM 4-OHT for 7 days, mammosphere formation was recorded using an Axiovert S100 TV inverted microscope (Zeiss). […] After resuspension with 0.5 mL PBS buffer, CD44^+/CD24^−/low cell population was analyzed by flow cytometry. • Orthotopic xenograft breast tumor mouse model, in vivo imaging and anti-tumor therapy. […] The tumor volume was monitored every 3 days, and tumor size was calculated using the formula: volume=0.5×(width)^2×(length). […]

B1: pRNA-HER2apt-siMED1: 3-WJ pRNA nanoparticle bearing a HER2-targeting RNA aptamer and two different MED1 siRNAs; strands p1 SEQ ID NO: 3, p2 SEQ ID NO: 4 (nucleic acid)
chain 1: GGACAGUGAAAGUGAGUCAAAGGAUCAAUCAUGGCCAAAGAUGUUACUUUGAGAGCCUU
chain 2: GGCUCUCAAAGUAACAUCUAAGGCCAUGUGUAUGUGGGGGGAGGACGAUGCGGUCUGCUGUGCUUGAUAUGCCCCAGACGACUCGCCCCCCACAUACUUUGUUGAUCCAAUGACUCACUUUCACUGUCCUU
modifications: 2'-F modification; third strand may lack entry; pRNA-HER2apt-siMED1, p1; pRNA-HER2apt-siMED1, p2
For B1, the “histopathology of heart, liver, spleen, lung and kidney” value (H&E staining after therapeutic treatment) was “no evidence of any apparent organ injury or disturbance” and the mouse body weight (entire treatment period, systemic administration) was “no significant reduction”.
